Results taken from article PMC3274520.

Assays:
[1] = biological target: full-length MNV-1 NS1-2, bacterial two-hybrid fusions (pBT-NS1-2full and pTRG-NS1-2full) (Murine norovirus (MNV-1)); test: two-hybrid; BacterioMatch II bacterial two-hybrid; NS1-2 fused to λcI (pBT) and to the RNA polymerase α-subunit (pTRG); selective medium with 3 mM 3-AT
[2] = biological target: truncated MNV-1 NS1-2, bacterial two-hybrid fusions (pBT-NS1-2trunc and pTRG-NS1-2trunc) (Murine norovirus (MNV-1)); test: as above
[3] = biological target: truncated MNV-1 NS1-2 fragment (minus the transmembrane domain), recombinant from E. coli (Murine norovirus (MNV-1)); test: SEC + other: sucrose gradient sedimentation; Stokes radius from the calibrated Superose12 column and sedimentation coefficient from 5-20% sucrose gradients (16 h, 130,000×g, 4°C) joined in the simplified Svedberg equation; monomer and dimer fractions of the size exclusion column

“full-length MNV-1 NS1-2, bacterial two-hybrid fusions (pBT-NS1-2full and pTRG-NS1-2full) (natural protein)” was tested, and the percent positive (transcriptional activation) [1] was 26%.
Work on “truncated MNV-1 NS1-2, bacterial two-hybrid fusions (pBT-NS1-2trunc and pTRG-NS1-2trunc) (domain or fragment)” yielded a percent positive (transcriptional activation) [2] of 38%.
For “truncated MNV-1 NS1-2 fragment (minus the transmembrane domain), recombinant from E. coli (domain or fragment)”, the stoichiometry N [3] was 2.
